Read-outs that look alike come from different tables or passages of the source.
Tests used:
Assay in all cases: single-molecule TIRF colocalisation with deconvolution of colocalisation times
[1] = target: T1, N-terminally SNAP-tagged human β2-adrenergic receptor (SNAP-β2AR) (human, UniProt P07550 1-413, SNAP-Surface Alexa Fluor 647 on the SNAP-tag)
[2] = target: T1, N-terminally SNAP-tagged human …; remark: listed apart in the source
[3] = target: T1, N-terminally SNAP-tagged human …; remark: listed apart in the source

fold increase in kon versus basal [1]: ~1.8 fold | koff [2]: 1.34 s⁻¹ | fold increase in kon versus basal [3]: ~1.4 fold
B1: C-terminally Halo-tagged bovine β-arrestin 2 (βArr2-Halo) (natural protein)
chain: MGEKPGTRVFKKSSPNCKLTVYLGKRDFVDHLDKVDPVDGVVLVDPDYLKDRKVFVTLTCAFRYGREDLDVLGLSFRKDLFIANYQAFPPTPNPPRPPTRLQERLLRKLGQHAHPFFFTIPQNLPCSVTLQPGPEDTGKACGVDFEIRAFCAKSLEEKSHKRNSVRLVIRKVQFAPEKPGPQPSAETTRHFLMSDRSLHLEASLDKELYYHGEPLNVNVHVTNNSTKTVKKIKVSVRQYADICLFSTAQYKCPVAQVEQDDQVSPSSTFCKVYTITPLLSNNREKRGLALDGKLKHEDTNLASSTIVKEGANKEVLGILVSYRVKVKLVVSRGGDVSVELPFVLMHPKPHDHIALPRPQSAAPETDAPVDTNLIEFETNYATDDDIVFEDFARLRLKGLKDEDYDDQFC
modifications: Halo-JF549 on the Halo-tag (single-molecule microscopy); Halo-R110 on the Halo-tag (BRET)

Reference: doi:10.1101/2022.11.15.516577 (bioRxiv, 2022)
